Data from patent US20230192820A1 (published 2023).

B1: MAb362 (antibody, V domains shown)
VH: QVQLVESGGGVVQPGRSLRLSCAASGFSFSSYGMHWVRQAPGKGLEWVAVIWYDGSDKYYADSVKGRFTISRDNSKNTLYLQLNSLRAEDTAIYYCARERYFDWIFDFWGQGTLVTVSS
VL: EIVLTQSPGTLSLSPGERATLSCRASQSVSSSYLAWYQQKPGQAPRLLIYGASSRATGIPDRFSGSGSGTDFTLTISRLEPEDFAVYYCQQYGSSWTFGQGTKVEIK
B2: MAb362 IgG1 (antibody, V domains shown)
VH: B1 VH
VL: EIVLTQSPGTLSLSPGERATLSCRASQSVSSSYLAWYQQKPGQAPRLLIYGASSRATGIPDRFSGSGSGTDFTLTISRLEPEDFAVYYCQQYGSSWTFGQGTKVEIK
B3: MAb362 IgA1 (monomeric) (antibody, V domains shown)
VH: B1 VH
VL: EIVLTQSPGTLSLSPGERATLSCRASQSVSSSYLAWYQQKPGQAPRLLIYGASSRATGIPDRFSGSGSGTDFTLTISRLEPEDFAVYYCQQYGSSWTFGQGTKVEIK

How the values were obtained:
[1] = target: SARS-CoV-2 S protein S1 subunit (amino acids 1-604), Myc/His tagged (SARS-CoV-2, UniProt P0DTC2 14-604)
[2] = target: SARS-CoV-2 spike (S) protein on virus or pseudovirus particles (SARS-CoV-2, UniProt P0DTC2 14-1273); test: cell-based or functional assay
[3] = target: SARS-CoV S protein RBD (amino acids 270-510) (SARS-CoV (Urbani strain), UniProt P59594 270-510)
[4] = target: SARS-CoV-2 S protein RBD (amino acids 319-541) (SARS-CoV-2, UniProt P0DTC2 319-541)

Binder	EC50 [1]	plaque reduction neutralization test (PRNT), EC50 [2]	Kd [3]	Kd [4]	neutralization of SARS-CoV-2 pseudovirus, IC50 [2]
B1	~40 nM	~5 µg/mL	–	–	–
B2	–	–	1.3 nM	13 nM	58.7 µg/mL
B3	–	–	1.4 nM	0.3 nM	1.26 µg/mL
